Assay results from patent US20230118307A1, “THERAPEUTIC USE OF LONG-ACTING CONJUGATE OF TRIPLE AGONIST HAVING ACTIVITIES TO ALL OF GLUCAGON/GLP-1/GIP RECEPTORS FOR LUNG DISEASE” (HANMI PHARM. CO., LTD., priority 2020, published 2023).
Positions of bridges follow the written chain, without caps; N, C: chain ends. Non-standard residues stand in square brackets, D forms with d. No end group written: not given here. *: point of attachment. Acetyl(2-(4-imidazolyl)) = O=C(Cc1c[nH]cn1)*; Aib = CC(C)(N)C(=O)O

What was measured:
Experiment in all cases: cell-based or functional assay
[1] = molecular target: human GLP-1 receptor (human, UniProt P43220 24-463)
[2] = molecular target: T1, human GIP receptor (human, UniProt P48546 22-466)
T1 sequence (looked up): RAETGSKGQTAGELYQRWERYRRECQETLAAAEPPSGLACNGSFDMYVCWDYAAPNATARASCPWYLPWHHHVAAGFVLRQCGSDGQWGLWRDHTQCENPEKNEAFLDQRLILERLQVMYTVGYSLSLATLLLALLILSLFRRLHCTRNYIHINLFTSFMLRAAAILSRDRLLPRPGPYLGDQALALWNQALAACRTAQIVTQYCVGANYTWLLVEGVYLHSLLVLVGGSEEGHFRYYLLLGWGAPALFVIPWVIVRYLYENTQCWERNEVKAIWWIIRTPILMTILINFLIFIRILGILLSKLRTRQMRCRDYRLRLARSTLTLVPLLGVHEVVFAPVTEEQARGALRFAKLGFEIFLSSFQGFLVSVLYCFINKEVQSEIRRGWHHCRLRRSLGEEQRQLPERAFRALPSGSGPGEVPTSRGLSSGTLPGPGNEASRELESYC

[3] = molecular target: human GCG receptor (human, UniProt P47871 26-477)
Sequence of human GCG receptor (P47871 26-477): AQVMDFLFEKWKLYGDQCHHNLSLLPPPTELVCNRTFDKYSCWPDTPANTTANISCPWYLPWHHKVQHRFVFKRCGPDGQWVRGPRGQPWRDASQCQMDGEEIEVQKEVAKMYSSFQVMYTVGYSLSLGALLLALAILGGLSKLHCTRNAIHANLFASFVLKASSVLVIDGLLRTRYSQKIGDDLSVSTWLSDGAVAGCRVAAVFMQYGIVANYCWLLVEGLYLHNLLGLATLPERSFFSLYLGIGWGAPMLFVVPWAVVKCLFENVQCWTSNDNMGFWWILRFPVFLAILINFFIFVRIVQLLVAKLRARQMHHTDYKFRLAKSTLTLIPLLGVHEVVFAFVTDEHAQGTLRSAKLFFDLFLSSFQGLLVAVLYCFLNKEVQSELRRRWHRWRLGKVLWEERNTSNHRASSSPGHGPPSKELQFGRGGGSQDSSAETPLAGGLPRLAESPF

B1: triple agonist of SEQ ID NO: 21 (peptide)
peptide: Y[Aib]QGTFTSDYSKYLDECRAKEFVQWLLDHHPSSGQPPPS
modifications: bridge 16-20
[1]
  In vitro Activity Compared to Native Peptide (%) vs. GLP-1: 17.8%
[2]
  In vitro Activity Compared to Native Peptide (%) vs. GIP: 22.7%
[3]
  In vitro Activity Compared to Native Peptide (%) vs. Glucagon: 267%

B2: triple agonist of SEQ ID NO: 18 (peptide)
peptide: [Acetyl(2-(4-imidazolyl))]GQGTFTSDLSKQMDSERAREFIEWLKNTGPSSGAPPPSHG
[1]
  In vitro Activity Compared to Native Peptide (%) vs. GLP-1: < 0.1%
[2]
  In vitro Activity Compared to Native Peptide (%) vs. GIP: < 0.1%
[3]
  In vitro Activity Compared to Native Peptide (%) vs. Glucagon: < 0.1%

B3: triple agonist of SEQ ID NO: 16 (peptide)
peptide: [Acetyl(2-(4-imidazolyl))]GQGTFTSDLSKQMDSEAQQLFIEWLKNGGPSSGAPPPSHG
[1]
  In vitro Activity Compared to Native Peptide (%) vs. GLP-1: 2.1%
[2]
  In vitro Activity Compared to Native Peptide (%) vs. GIP: < 0.1%
[3]
  In vitro Activity Compared to Native Peptide (%) vs. Glucagon: < 0.1%

B4: triple agonist of SEQ ID NO: 95 (peptide)
peptide: Y[Aib]QGTFTSDYSKYLDEKRAKEFVQWLLCHHPSSGQPPPS
modifications: bridge 16-20
[1]
  In vitro Activity Compared to Native Peptide (%) vs. GLP-1: 2.1%
[2]
  In vitro Activity Compared to Native Peptide (%) vs. GIP: < 0.1%
[3]
  In vitro Activity Compared to Native Peptide (%) vs. Glucagon: 0.4%

B5: triple agonist of SEQ ID NO: 99 (peptide)
peptide: Y[Aib]QGTFTSDYSKALDEKAAKDFVNWLLDHHPSSGQPPPSC
modifications: bridge 16-20
[1]
  In vitro Activity Compared to Native Peptide (%) vs. GLP-1: 20.9%
[2]
  In vitro Activity Compared to Native Peptide (%) vs. GIP: 57.7%
[3]
  In vitro Activity Compared to Native Peptide (%) vs. Glucagon: 14.9%

B6: triple agonist of SEQ ID NO: 96 (peptide)
peptide: Y[Aib]QGTFTSDYSKYLDEKRAKEFVQWLLDHCPSSGQPPPS
modifications: bridge 16-20
[1]
  In vitro Activity Compared to Native Peptide (%) vs. GLP-1: 34.4%
[2]
  In vitro Activity Compared to Native Peptide (%) vs. GIP: 5.2%
[3]
  In vitro Activity Compared to Native Peptide (%) vs. Glucagon: 195%

B7: triple agonist of SEQ ID NO: 94 (peptide)
peptide: [Acetyl(2-(4-imidazolyl))][Aib]QGTFTSDYSIAMDEIHQKDFVNWLLNTKC
modifications: bridge 16-20
[1]
  In vitro Activity Compared to Native Peptide (%) vs. GLP-1: 0.5%
[2]
  In vitro Activity Compared to Native Peptide (%) vs. GIP: < 0.1%
[3]
  In vitro Activity Compared to Native Peptide (%) vs. Glucagon: < 0.1%

B8: triple agonist of SEQ ID NO: 3 (peptide)
peptide: H[Aib]QGTFTSDVSSYLLGQAAKQFIAWLVKGGGPSSGAPPPSC
[1]
  In vitro Activity Compared to Native Peptide (%) vs. GLP-1: 1.8%
[2]
  In vitro Activity Compared to Native Peptide (%) vs. GIP: < 0.1%
[3]
  In vitro Activity Compared to Native Peptide (%) vs. Glucagon: < 0.1%

B9: triple agonist of SEQ ID NO: 24 (peptide)
peptide: Y[Aib]QGTFTSDYSKYLDECRAKEFVQWLKNGGPSSGAPPPS
modifications: bridge 16-20
[1]
  In vitro Activity Compared to Native Peptide (%) vs. GLP-1: 41.2%
[2]
  In vitro Activity Compared to Native Peptide (%) vs. GIP: < 0.1%
[3]
  In vitro Activity Compared to Native Peptide (%) vs. Glucagon: 9.3%

B10: triple agonist of SEQ ID NO: 23 (peptide)
peptide: Y[Aib]QGTFTSDYSKYLDECRAKEFVQWLLAQKGKKNDWKHNIT
modifications: bridge 16-20
[1]
  In vitro Activity Compared to Native Peptide (%) vs. GLP-1: 4.01%
[2]
  In vitro Activity Compared to Native Peptide (%) vs. GIP: < 0.1%
[3]
  In vitro Activity Compared to Native Peptide (%) vs. Glucagon: 9.3%

B11: triple agonist of SEQ ID NO: 11 (peptide)
peptide: [Acetyl(2-(4-imidazolyl))]GEGTFTSDLSKYLDSRRQQLFVQWLKAGGPSSGAPPPSHG
[1]
  In vitro Activity Compared to Native Peptide (%) vs. GLP-1: 1.4%
[2]
  In vitro Activity Compared to Native Peptide (%) vs. GIP: < 0.1%
[3]
  In vitro Activity Compared to Native Peptide (%) vs. Glucagon: < 0.1%

B12: triple agonist of SEQ ID NO: 10 (peptide)
peptide: H[Aib]QGTFTSDVSKYLDGQAAQEFVAWLLAGGGPSSGAPPPSC
[1]
  In vitro Activity Compared to Native Peptide (%) vs. GLP-1: 46%
[2]
  In vitro Activity Compared to Native Peptide (%) vs. GIP: < 0.1%
[3]
  In vitro Activity Compared to Native Peptide (%) vs. Glucagon: < 0.1%

B13: triple agonist of SEQ ID NO: 102 (peptide)
peptide: Y[Aib]QGTFTSDYSKALDEKAAKDFVNWLLDQHPSSGQPPPSC
modifications: bridge 16-20
[1]
  In vitro Activity Compared to Native Peptide (%) vs. GLP-1: 23.3%
[2]
  In vitro Activity Compared to Native Peptide (%) vs. GIP: 58%
[3]
  In vitro Activity Compared to Native Peptide (%) vs. Glucagon: 29.5%

B14: triple agonist of SEQ ID NO: 19 (peptide)
peptide: [Acetyl(2-(4-imidazolyl))]GQGTFTSDLSIQYDSEHQRDFIEWLKDTGPSSGAPPPSHG
[1]
  In vitro Activity Compared to Native Peptide (%) vs. GLP-1: < 0.1%
[2]
  In vitro Activity Compared to Native Peptide (%) vs. GIP: < 0.1%
[3]
  In vitro Activity Compared to Native Peptide (%) vs. Glucagon: < 0.1%

B15: triple agonist of SEQ ID NO: 100 (peptide)
peptide: Y[Aib]QGTFTSDYSKALDEKAAKEFVQWLLDQHPSSGQPPPSC
modifications: bridge 16-20
[1]
  In vitro Activity Compared to Native Peptide (%) vs. GLP-1: 42.2%
[2]
  In vitro Activity Compared to Native Peptide (%) vs. GIP: 118%
[3]
  In vitro Activity Compared to Native Peptide (%) vs. Glucagon: 12.7%

B16: triple agonist of SEQ ID NO: 12 (peptide)
peptide: [Acetyl(2-(4-imidazolyl))]GEGTFISDLSKYMDEQAVQLFVEWLMAGGPSSGAPPPSHG
[1]
  In vitro Activity Compared to Native Peptide (%) vs. GLP-1: 0.4%
[2]
  In vitro Activity Compared to Native Peptide (%) vs. GIP: < 0.1%
[3]
  In vitro Activity Compared to Native Peptide (%) vs. Glucagon: < 0.1%

B17: triple agonist of SEQ ID NO: 22 (peptide)
peptide: Y[Aib]QGTFTSDYSKCLDEKRAKEFVQWLLDHHPSSGQPPPS
modifications: bridge 16-20
[1]
  In vitro Activity Compared to Native Peptide (%) vs. GLP-1: 20.1%
[2]
  In vitro Activity Compared to Native Peptide (%) vs. GIP: 59.7%
[3]
  In vitro Activity Compared to Native Peptide (%) vs. Glucagon: 140%

B18: triple agonist of SEQ ID NO: 97 (peptide)
peptide: Y[Aib]QGTFTSDYSKYLDEKRAKEFVQWLLDCHPSSGQPPPS
modifications: bridge 16-20
[1]
  In vitro Activity Compared to Native Peptide (%) vs. GLP-1: 10.5%
[2]
  In vitro Activity Compared to Native Peptide (%) vs. GIP: 2.6%
[3]
  In vitro Activity Compared to Native Peptide (%) vs. Glucagon: 62.8%

B19: triple agonist of SEQ ID NO: 20 (peptide)
peptide: [Acetyl(2-(4-imidazolyl))]GQGTFTSDLSIQYEEEAQQDFVEWLKDTGPSSGAPPPSHG
[1]
  In vitro Activity Compared to Native Peptide (%) vs. GLP-1: < 0.1%
[2]
  In vitro Activity Compared to Native Peptide (%) vs. GIP: < 0.1%
[3]
  In vitro Activity Compared to Native Peptide (%) vs. Glucagon: < 0.1%

B20: triple agonist of SEQ ID NO: 13 (peptide)
peptide: [Acetyl(2-(4-imidazolyl))]GEGTFISDYSIQLDEIAVQDFVEWLLAQKPSSGAPPPSHG
[1]
  In vitro Activity Compared to Native Peptide (%) vs. GLP-1: < 0.1%
[2]
  In vitro Activity Compared to Native Peptide (%) vs. GIP: < 0.1%
[3]
  In vitro Activity Compared to Native Peptide (%) vs. Glucagon: < 0.1%

B21: triple agonist of SEQ ID NO: 2 (peptide)
peptide: H[Aib]QGTFTSDVSSYLDGQAQKEFIAWLVKGC
[1]
  In vitro Activity Compared to Native Peptide (%) vs. GLP-1: 5.9%
[2]
  In vitro Activity Compared to Native Peptide (%) vs. GIP: < 0.1%
[3]
  In vitro Activity Compared to Native Peptide (%) vs. Glucagon: < 0.1%

B22: triple agonist of SEQ ID NO: 98 (peptide)
peptide: Y[Aib]QGTFTSDYSKALDEKAAKEFVNWLLDHHPSSGQPPPSC
modifications: bridge 16-20
[1]
  In vitro Activity Compared to Native Peptide (%) vs. GLP-1: 28.1%
[2]
  In vitro Activity Compared to Native Peptide (%) vs. GIP: 47.1%
[3]
  In vitro Activity Compared to Native Peptide (%) vs. Glucagon: 8.2%

B23: triple agonist of SEQ ID NO: 17 (peptide)
peptide: [Acetyl(2-(4-imidazolyl))]GQGTFTSDLSKQMDEERAREFIEWLLAQKPSSGAPPPSHG
[1]
  In vitro Activity Compared to Native Peptide (%) vs. GLP-1: 0.2%
[2]
  In vitro Activity Compared to Native Peptide (%) vs. GIP: < 0.1%
[3]
  In vitro Activity Compared to Native Peptide (%) vs. Glucagon: < 0.1%

B24: triple agonist of SEQ ID NO: 14 (peptide)
peptide: [Acetyl(2-(4-imidazolyl))]GQGTFTSDYSIQLDEIAVRDFVEWLKNGGPSSGAPPPSHG
[1]
  In vitro Activity Compared to Native Peptide (%) vs. GLP-1: 28%
[2]
  In vitro Activity Compared to Native Peptide (%) vs. GIP: < 0.1%
[3]
  In vitro Activity Compared to Native Peptide (%) vs. Glucagon: < 0.1%

B25: triple agonist of SEQ ID NO: 101 (peptide)
peptide: Y[Aib]QGTFTSDYSKALDEKAAKEFVNWLLDQHPSSGQPPPSC
modifications: bridge 16-20
[1]
  In vitro Activity Compared to Native Peptide (%) vs. GLP-1: 23.2%
[2]
  In vitro Activity Compared to Native Peptide (%) vs. GIP: 40.1%
[3]
  In vitro Activity Compared to Native Peptide (%) vs. Glucagon: 13.9%

B26: triple agonist of SEQ ID NO: 25 (peptide)
peptide: H[Aib]QGTFTSDCSKYLDERAAQDFVQWLLDGGPSSGAPPPS
[1]
  In vitro Activity Compared to Native Peptide (%) vs. GLP-1: 82.6%
[2]
  In vitro Activity Compared to Native Peptide (%) vs. GIP: < 0.1%
[3]
  In vitro Activity Compared to Native Peptide (%) vs. Glucagon: 0.1%
